Laboratory results taken from patent US7851591 (Dana-Farber, dated 2010).

Legend:
human HLA-A*0201 [1] = target: T1, human HLA-A*0201 (human); assay: T2 cell assay, 50 µg/ml peptide plus 5 µg/ml b2m for 18 h, flow cytometry with mAb BB7.2; (MFI with peptide - MFI without)/MFI without
T1 construct: In the T2 assay the MHC stands on the cell surface; also called HLA-A2

human HLA-A*0201 [2] = target: T1, human HLA-A*0201; assay: T2 cell assay: peptide plus beta2-microglobulin pulsed 18 h, HLA-A*0201 surface expression by flow cytometry with mAb BB7.2

Binder	Fluorescence Index (human HLA-A*0201 [1])	binding result (human HLA-A*0201 [2])
HFLLWKLIA [I540-S, scrambled hTERT I540 peptide (HFLLWKLIA), negative control]	0.2	no binding (tested: 50 µg/ml)
RLVDDFLLV (Only the start position aa865 is printed; the end of the range follows from the length of the nonapeptide) [hTERT peptide R865 (RLVDDFLLV)]	2.2	
ELLRSFFYV (Only the start position aa555 is printed; the end of the range follows from the length of the nonapeptide) [hTERT peptide E555 (ELLRSFFYV)]	2.2	
ILAKFLHWL (Only the start position aa540 is printed; the end of the range follows from the length of the nonapeptide; also called hTERT I540) [hTERT peptide I540 (ILAKFLHWL)]	3.1	
AHTKDGFNF (Only the start position aa98 is printed) [A98-Id idiotype peptide (AHTKDGFNF), negative control]	0	no binding (tested: 50 µg/ml)
